# B1: Topoisomerase IIα (enzyme)
# chain: MEVSPLQPVNENMQVNKIKKNEDAKKRLSVERIYQKKTQLEHILLRPDTYIGSVELVTQQMWVYDEDVGINYREVTFVPGLYKIFDEILVNAADNKQRDPKMSCIRVTIDPENNLISIWNNGKGIPVVEHKVEKMYVPALIFGQLLTSSNYDDDEKKVTGGRNGYGAKLCNIFSTKFTVETASREYKKMFKQTWMDNMGRAGEMELKPFNGEDYTCITFQPDLSKFKMQSLDKDIVALMVRRAYDIAGSTKDVKVFLNGNKLPVKGFRSYVDMYLKDKLDETGNSLKVIHEQVNHRWEVCLTMSEKGFQQISFVNSIATSKGGRHVDYVADQIVTKLVDVVKKKNKGGVAVKAHQVKNHMWIFVNALIENPTFDSQTKENMTLQPKSFGSTCQLSEKFIKAAIGCGIVESILNWVKFKAQVQLNKKCSAVKHNRIKGIPKLDDANDAGGRNSTECTLILTEGDSAKTLAVSGLGVVGRDKYGVFPLRGKILNVREASHKQIMENAEINNIIKIVGLQYKKNYEDEDSLKTLRYGKIMIMTDQDQDGSHIKGLLINFIHHNWPSLLRHRFLEEFITPIVKVSKNKQEMAFYSLPEFEEWKSSTPNHKKWKVKYYKGLGTSTSKEAKEYFADMKRHRIQFKYSGPEDDAAISLAFSKKQIDDRKEWLTNFMEDRRQRKLLGLPEDYLYGQTTTYLTYNDFINKELILFSNSDNERSIPSMVDGLKPGQRKVLFTCFKRNDKREVKVAQLAGSVAEMSSYHHGEMSLMMTIINLAQNFVGSNNLNLLQPIGQFGTRLHGGKDSASPRYIFTMLSSLARLLFPPKDDHTLKFLYDDNQRVEPEWYIPIIPMVLINGAEGIGTGWSCKIPNFDVREIVNNIRRLMDGEEPLPMLPSYKNFKGTIEELAPNQYVISGEVAILNSTTIEISELPVRTWTQTYKEQVLEPMLNGTEKTPPLITDYREYHTDTTVKFVVKMTEEKLAEAERVGLHKVFKLQTSLTCNSMVLFDHVGCLKKYDTVLDILRDFFELRLKYYGLRKEWLLGMLGAESAKLNNQARFILEKIDGKIIIENKPKKELIKVLIQRGYDSDPVKAWKEAQQKVPDEEENEESDNEKETEKSDSVTDSGPTFNYLLDMPLWYLTKEKKDELCRLRNEKEQELDTLKRKSPSDLWKEDLATFIEELEAVEAKEKQDEQVGLPGKGGKAKGKKTQMAEVLPSPRGQRVIPRITIEMKAEAEKKNKKKIKNENTEGSPQEDGVELEGLKQRLEKKQKREPGTKTKKQTTLAFKPIKKGKKRNPWSDSESDRSSDESNFDVPPRETEPRRAATKTKFTMDLDSDEDFSDFDEKTDDEDFVPSDASPPKTKTSPKLSNKELKPQKSVVSDLEADDVKGSVPLSSSPPATHFPDETEITNPVPKKNVTVKKTAAKSQSSTSTTGAKKRAAPKGTKRDPALNSGVSQKPDPAKTKNRRKRKPSTSDDSDSNFEKIVSKAVTSKKSKGESDDFHMDFDSAVAPRAKSVRAKKPIKYLEESDEDDLF
# Biological target: the molecule itself
# Experiment: glycerol gradient sedimentation + SEC
protein,measurement,value
B1,stoichiometry N,2

# Reference: article PMC2577339 (Nucleic Acids Research, 2008)
